Key:
[1] = Separate DIO mice study with inactivated control molecules, daily sc 22 days; assay type: in vivo, DIO mice (C57BL/6 mice on high fat diet)
Experimental: FIGS. 9A-9G show In vivo efficacy in DIO mice. To evaluate the body weight, food intake and glucose effects of the fusion proteins, 17 week old DIO mice (C57BL/6 mice on high fat diet for 13 weeks) were dosed everyday subcutaneously with different concentrations of proteins for 22 days. […] Data are expressed as mean values and standard error (SEM) for FIGS. 9A and 9C-G. n=5 for each treatment group. For FIG. 9B, a pooled food intake was measured for each treatment group.
(§1) 17 week old DIO male C57BL/6 mice (˜45 g) were injected everyday subcutaneously with designated proteins (i.e., MLC089, MLC093) for 28 days. Food intake and body weight were measured daily and five animals were used for each treatment group. Fasting glucose was also monitored on designated days. Body weight and glucose were monitored for each individual animal, but food intake for each group animals was measured together. Day 1 and Day 28 are first day and last day of molecule dosage. % BW loss=100*(BW on Day n-BW on Day 1)/(BW on Day 1). Cumulative food intake on Day n represents sum of food intake from Day 1 to Day n. Terminal blood was collected and EDTA-2K plasma was prepared and frozen at −80 C for biomarker measurement. Liver was also collected and frozen in liquid nitrogen and store at −80 C. Data are indicated as mean values and standard error (SEM) or pooled values.

[2] = PK study in non-human primates, single sc dose 5 nmol/kg, plasma ELISA; details: monkey, single sc dose 5 nmol/kg
Experimental: Plasma samples were collected pre-dose (−5 min), 2 hr, 4 hr, 6 hr, 8 hr, 24 hr, 48 hr, 72 hr, 96 hr, 120 hr, 144 hr, 216 hr, 288 hr, 360 hr, 432 hr and 504 hr after the injection. The concentrations of the fusion protein conjugates in the plasma were measured by an ELISA assay which has immunoreactivity towards both GDF15 and intact N-terminal of GLP-1. Based on the graph showing plasma concentration of each protein versus time after subcutaneous injection, the pharmacokinetic parameters (including Tmax, Cmax, T1/2, AUC) were calculated by WinNonlin software.

[3] = Pharmacokinetic measurement in mouse, single sc dose 30 nmol/kg, plasma ELISA
[4] = Efficacy in DIO mice, daily sc 28 days; assay type: in vivo, DIO male C57BL/6 mice
Experimental: FIGS. 6A-6E show In vivo efficacy in DIO mice. To evaluate the body weight, food intake and glucose effects of the fusion proteins, 17 week old DIO mice (C57BL/6 mice on high fat diet for 13 weeks) were dosed everyday subcutaneously with different concentrations of proteins for 28 days. […] FIGS. 6D and 6E show body weight change with dose titrations of MLC089 and MLC093 at 3, 10 and 30 nmol/kg. Data are expressed as mean values and standard error (SEM) for FIGS. 6A, 6C, 6D and 6E. n=5 for each treatment group. For FIG. 6B, a pooled food intake was measured for each treatment group.
as §1

[5] = Efficacy in spontaneously obese cynomolgus monkeys, sc every three days for 49 days; assay type: in vivo; details: obese monkeys, 1, 3 and 10 nmol/kg sc every three days
Experimental: FIGS. 10A-10B show In vivo efficacy in obese monkey. Naïve male spontaneously obese cynomolgus monkeys were injected every three days subcutaneously with designated protein MLC093 with different concentrations for 49 days.
Naïve male spontaneously obese cynomolgus monkeys with BMI>40 kg/m^2 were injected every three days subcutaneously with designated protein MLC093 for 49 days. Body weight was measured once a week and food intake was measured daily for each monkey. Six animals were used for vehicle or MLC093 1 nmol/kg treamment group and seven animals were used for MLC093 3 nmol/kg or MLC093 10 nmol/kg treamment group. Day 1 and Day 49 are first day and last day of molecule dosage. % BW loss=100*(BW on Day n-BW on Day 1)/(BW on Day 1). Cumulative food intake on Day n represents sum of food intake from Day 1 to Day n. Data are indicated as mean values and standard error (SEM) or pooled values.

[6] = Stability study: SEC-HPLC (% HMW, % LMW), RP-UPLC and LC/MS after 2 weeks storage; assay type: physicochemical
Experimental: To test the stability, the different conjugated fusion proteins were formulated in buffers with different compositions (pH6, 7, 7.4 and 8.0) and stored at 4° C. and 37° C. or 40° C. for 2 weeks. The % High Molecular Weight aggregate (HMW) and % Low Molecular Weight (LMW) were analyzed by size exclusion chromatography (SEC)-HPLC. The concentration and modifications were analyzed by reverse phase (RP)-UPLC and LC/MS.

B1: MLC093: fusion polypeptide SEQ ID NO: 381 conjugated with Moiety B at 33C of Linker (conjugate)
chain: HGEGTFTSDVSSYLEEQAAKEFIAWLVRGGGGAQPGAQPGAQPGAQPGAQPGAQPGAQPGAQPCQEPGAQPGQEPGAQPGQEPGAQPGQEPGAQPGQEPGAQPGQEPGAQPARQGDHCPLGPGRCCRLHTVRASLEDLGWADWVLSPREVQVTMCIGACPSQFRAANLHAQIKTSLHRLKPDTVPAPCCVPASYNPMVLIQKTDTGVSLQTYDDLLAKDCHCI
modifications: Moiety B conjugated at linker Cys33
liver triglyceride contents ([1]; Day 22, FIG. 9G, relative to vehicle or MLC114 and MLC113): reduction of liver triglyceride contents | efficacy ([1]; separate DIO study, FIG. 9A-9G, versus MLC114 and MLC113): better efficacy than corresponding control molecules having inactivated GLP-1 or GDF15 mutants | body weight reduction ([1]; separate DIO study, FIG. 9A, versus MLC114 and MLC113): better body weight reduction, food intake suppression and glucose control | food intake suppression ([1]; separate DIO study, FIG. 9B, versus MLC114 and MLC113): better body weight reduction, food intake suppression and glucose control | glucose control ([1]; separate DIO study, FIG. 9C, versus MLC114 and MLC113): better body weight reduction, food intake suppression and glucose control | plasma triglyceride level ([1]; terminal plasma Day 22, FIG. 9D, relative to vehicle or MLC114 and MLC113): therapeutic efficacy in reducing plasma triglyceride, cholesterol and insulin levels | plasma cholesterol level ([1]; terminal plasma Day 22, FIG. 9E, relative to vehicle or MLC114 and MLC113): therapeutic efficacy in reducing plasma triglyceride, cholesterol and insulin levels | plasma insulin level ([1]; terminal plasma Day 22, FIG. 9F, relative to vehicle or MLC114 and MLC113): therapeutic efficacy in reducing plasma triglyceride, cholesterol and insulin levels | AUC0-96 h [2]: 3.843 µM·h | Terminal t1/2 [2]: 41 h | Tmax [2]: 16 h | Cmax ([2]; read-out: Cmax (nmol/L)): 56.2 nmol/L | Cmax ([3]; read-out: Cmax (nmol/L), single sc dose 30 nmol/kg): 120 nmol/L | AUC0-24 h ([3]; single sc dose 30 nmol/kg): 2.1637 µM·h | Terminal t1/2 ([3]; single sc dose 30 nmol/kg): 15.9 h | Tmax ([3]; single sc dose 30 nmol/kg): 16.0 h | body weight reduction efficacy ([4]; DIO mice, 30 nmol/kg daily 28 days, FIG. 6A): much better body weight reduction efficacy than Semaglutide and GDF15 derivative (MLC014) | dose dependence of body weight reduction ([4]; DIO mice, 3, 10 and 30 nmol/kg, FIGS. 6D and 6E): dose dependent efficacy on body weight reduction | fasting glucose ([4]; DIO mice, FIG. 6C): reached similar level to Semaglutide | efficacy ([4]; DIO study, FIG. 6): better efficacy than Semaglutide and GDF15 derivative (MLC014) | body weight loss [5]: good efficacy on body weight loss and food intake suppression | food intake suppression [5]: good efficacy on body weight loss and food intake suppression | HMW % ([6]; 4.65 mg/mL at 4° C., Day 0): 0% | LMW % ([6]; 4.65 mg/mL at 4° C., Day 0): 0.43% | Main peak % ([6]; 4.65 mg/mL at 4° C., Day 0): 99.56% | HMW % ([6]; 4.65 mg/mL at 4° C., Day 7): 0% | LMW % ([6]; 4.65 mg/mL at 4° C., Day 7): 0.51% | Main peak % ([6]; 4.65 mg/mL at 4° C., Day 7): 99.46% | HMW % ([6]; 4.65 mg/mL at 4° C., Day 14): 0% | LMW % ([6]; 4.65 mg/mL at 4° C., Day 14): 0.39% | Main peak % ([6]; 4.65 mg/mL at 4° C., Day 14): 99.6% | HMW % ([6]; 4.65 mg/mL at 37° C., Day 0): 0% | LMW % ([6]; 4.65 mg/mL at 37° C., Day 0): 0.43% | Main peak % ([6]; 4.65 mg/mL at 37° C., Day 0): 99.56% | HMW % ([6]; 4.65 mg/mL at 37° C., Day 7): 0.53% | LMW % ([6]; 4.65 mg/mL at 37° C., Day 7): 0.56% | Main peak % ([6]; 4.65 mg/mL at 37° C., Day 7): 98.86% | HMW % ([6]; 4.65 mg/mL at 37° C., Day 14): 0.8% | LMW % ([6]; 4.65 mg/mL at 37° C., Day 14): 0.53% | Main peak % ([6]; 4.65 mg/mL at 37° C., Day 14): 98.6% | HMW % ([6]; 20 mg/mL at 4° C., Day 0): 0% | LMW % ([6]; 20 mg/mL at 4° C., Day 0): 0.38% | Main peak % ([6]; 20 mg/mL at 4° C., Day 0): 99.6% | HMW % ([6]; 20 mg/mL at 4° C., Day 7): 0% | LMW % ([6]; 20 mg/mL at 4° C., Day 7): 0.49% | Main peak % ([6]; 20 mg/mL at 4° C., Day 7): 99.49% | HMW % ([6]; 20 mg/mL at 4° C., Day 14): 0% | LMW % ([6]; 20 mg/mL at 4° C., Day 14): 0.44% | Main peak % ([6]; 20 mg/mL at 4° C., Day 14): 99.24% | HMW % ([6]; 20 mg/mL at 37° C., Day 0): 0% | LMW % ([6]; 20 mg/mL at 37° C., Day 0): 0.38% | Main peak % ([6]; 20 mg/mL at 37° C., Day 0): 99.6% | HMW % ([6]; 20 mg/mL at 37° C., Day 7): 1.03% | LMW % ([6]; 20 mg/mL at 37° C., Day 7): 0.53% | Main peak % ([6]; 20 mg/mL at 37° C., Day 7): 98.38% | HMW % ([6]; 20 mg/mL at 37° C., Day 14): 1.81% | LMW % ([6]; 20 mg/mL at 37° C., Day 14): 0.55% | Main peak % ([6]; 20 mg/mL at 37° C., Day 14): 97.64% | HMW % ([6]; 20 mg/mL at 40° C., Day 0): 0.56% | LMW % ([6]; 20 mg/mL at 40° C., Day 0): 0.54% | Main peak % ([6]; 20 mg/mL at 40° C., Day 0): 98.83% | HMW % ([6]; 20 mg/mL at 40° C., Day 14): 2.26% | LMW % ([6]; 20 mg/mL at 40° C., Day 14): 0.84% | Main peak % ([6]; 20 mg/mL at 40° C., Day 14): 96.76% | physical and chemical stability ([6]; 4° C., 37° C. and 40° C., 2 weeks): high physical and chemical stability
